The numbers were not newly measured in publication PMC6814268, which cites them from elsewhere.

For orientation: Kd means the free concentration of one partner at which half of the binding sites on the other are occupied at equilibrium, for simple one-to-one binding.

Data set [1] has as its target CEACAM1 IgV (Homo sapiens) (UniProt P13688).
Data set [2] has as its target CEACAM5 IgV (Homo sapiens) (UniProt P06731).

As to CEACAM1 IgV (from UniProt P13688), the Kd in data set [1] is 450 nM. For CEACAM5 IgV (from UniProt P06731), the Kd in data set [2] is 800 nM.
